Measurements as given in patent US6461867.

Biological target: VSV-7 peptide (Vesicular stomatitis virus)

B1: soluble H-2K^b (K^bsol), empty heterodimer of truncated K^b heavy chain and murine β-2 microglobulin (other)
alpha: GPHSLRYFVTAVSRPGLGEPRYMEVGYVDDTEFVRFDSDAENPRYEPRARWMEQEGPEYWERETQKAKGNEQSFRVDLRTLLGYYNQSKGGSHTIQVISGCEVGSDGRLLRGYQQYAYDGCDYIALNEDLKTWTAADMAALITKHKWEQAGEAERLRAYLEGTCVEWLRRYLKNGNATLLRTDSPKAHVTHHSRPEDKVTLRCWALGFYPADITLTWQLNGEELIQDMELVETRPAGDGTFQKWASVVVPLGKEQYYTCHVYHQGLPEPLTLRW
beta: IQKTPQIQVYSRHPPENGKPNILNCYVTQFHPPHIEIQMLKNGKKIPKVEMSDMSFSKDWSFYILAHTEFTPTETDTYACRVKHASMAEPKTVYWDRDM
B1 gave a Kd of 53 nM.
